In the supplement of paper PMC7877785:
± gives the uncertainty stated by the source.

Assay: self-splicing fitness, log relative to wild type (ln ratio); higher = more splicing; Tetrahymena group I intron in knt gene, E. coli kanamycin selection, DiMSum; sequences stand for … in CUCUCU…GGAGGGAAAAGUUAUCAGGCAUGCACCUGGUAGCUAGUCUUUAAACCAAUAGAUUGCAUCGGUUUAAAAGGCAAGACCGUCAAAUUGCGGGAAAGGGGUCAACAGCCGUUCAGUACCAAGUCUCAGGGGAAACUUUGAGAUGGCCUUGCAAAGGGUAUGGUAAUAAGCUGACGGACAUGGUCCUAACCACGCAGCCAAGUCCUAAGUCAACAGAUCUUCUGUUGAUAUGGAUGCAGUUCACAGACUAAAUGUCGGUCGGGGAAGAUGUAUUCUUCUCAUAAGAUAUAGUCGGACCUCUCCUUAAUGGGAGCUAGCGGAUGAAGUGAUGCAACACUGGAGCCGCUGGGAACUAAUUUGUAUGCGAAAGUAUAUUGAUUAGUUUUGGAGUACUCGUGGUCG
Method in brief: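 DiMSum derived fitness as the error-weighted combination of fold changes across replicates, kanamycin versus no kanamycin, normalised to wild type. E. coli BL21(DE3) held the library, which randomised all eight P1ex-region intron nucleotides within the knt kanamycin-resistance gene on pET-22b(+). Six replicate transformations grew overnight at 37°C or 30°C on LB agar with or without 25 μg/mL kanamycin, also containing 100 μg/mL carbenicillin, 50 μM IPTG and 0.2% rhamnose, and pooled colonies were amplicon-sequenced on an Illumina HiSeq 2500.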

| Sequence | self-splicing fitness (ln) (30 °C) | self-splicing fitness (ln) (37 °C) |
| --- | --- | --- |
| CCAUAGCAAUAUUACGAGGC | -3.03 ± 0.15 | -3.27 ± 0.21 |
| CCAUAGCAAUAUUACGCAAG | -2.84 ± 0.17 | -0.562 ± 0.13 |
| CCAUAGCAAUAUUACGCAGC |  | -3.34 ± 0.42 |
| CCAUAGCAAUAUUACGCCAC |  | -1.75 ± 0.49 |
| CCAUAGCAAUAUUACGCCAG | -1.94 ± 0.14 | -0.423 ± 0.14 |
| CCAUAGCAAUAUUACGCCAU | -4.18 ± 0.31 | -2.41 ± 0.25 |
| CCAUAGCAAUAUUACGCCUC | -3.21 ± 0.4 | -1.74 ± 0.29 |
| CCAUAGCAAUAUUACGCCUU | -3.13 ± 0.22 | -3.02 ± 0.22 |
| CCAUAGCAAUAUUACGCGUA | -3.19 ± 0.4 | -2.75 ± 0.41 |
| CCAUAGCAAUAUUACGCUCA | -3.11 ± 0.18 | -2.16 ± 0.25 |
| CCAUAGCAAUAUUACGGACU | -3.84 ± 0.33 | -1.85 ± 0.29 |
| CCAUAGCAAUAUUACGGCCC | -1.72 ± 0.22 |  |
| CCAUAGCAAUAUUACGGCCG | -0.548 ± 0.098 | -0.739 ± 0.12 |
| CCAUAGCAAUAUUACGGCUC | -2.85 ± 0.36 | -2.59 ± 0.45 |
| CCAUAGCAAUAUUACGGGCA | -3.32 ± 0.26 | -2.95 ± 0.29 |
| CCAUAGCAAUAUUACGGGGG | -3.01 ± 0.16 | -3.36 ± 0.31 |
| CCAUAGCAAUAUUACGUAGG | -2.29 ± 0.078 | -1.37 ± 0.094 |
| CCAUAGCAAUAUUACGUCGA | -3.03 ± 0.28 | -2.2 ± 0.27 |
| CCCAAGCAAUAUUACGAGAU | -2.91 ± 0.14 | -3.31 ± 0.21 |
| CCCAAGCAAUAUUACGAGUU | -3.89 ± 0.14 | -2.68 ± 0.14 |

| Sequence | self-splicing fitness (ln) (30 °C) | self-splicing fitness (ln) (37 °C) |
| --- | --- | --- |
| CCCAAGCAAUAUUACGCCAU | -3.28 ± 0.22 | -2.5 ± 0.23 |
| CCCAAGCAAUAUUACGCCCU | -3.14 ± 0.43 |  |
| CCCAAGCAAUAUUACGCGAA | -3.55 ± 0.15 | -2.63 ± 0.17 |
| CCCAAGCAAUAUUACGCGCA | -4.14 ± 0.35 | -2.72 ± 0.21 |
| CCCAAGCAAUAUUACGCGCU | -3.79 ± 0.34 | -1.91 ± 0.25 |
| CCCAAGCAAUAUUACGCUAG | -2.63 ± 0.19 | -2.72 ± 0.31 |
| CCCAAGCAAUAUUACGCUGC | -2.44 ± 0.2 | -2.43 ± 0.41 |
| CCCAAGCAAUAUUACGCUGG | -3.55 ± 0.19 | -2.52 ± 0.19 |
| CCCAAGCAAUAUUACGGCCC | -2.39 ± 0.47 |  |
| CCCAAGCAAUAUUACGGCCG | -2.73 ± 0.19 | -2.43 ± 0.21 |
| CCCAAGCAAUAUUACGGCUG | -4.22 ± 0.23 | -2.69 ± 0.16 |
| CCCAAGCAAUAUUACGGGUA | -4.37 ± 0.28 | -2.81 ± 0.16 |
| CCCAAGCAAUAUUACGGUAU | -4.33 ± 0.23 | -2.51 ± 0.21 |
| CCCAAGCAAUAUUACGUACC |  | -1.82 ± 0.28 |
| CCCAAGCAAUAUUACGUAGG | -2.17 ± 0.067 | -1.56 ± 0.082 |
| CCCAAGCAAUAUUACGUCGA | -3.92 ± 0.26 | -2.81 ± 0.2 |
| CCCAAGCAAUAUUACGUCGC | -3.94 ± 0.28 | -2.38 ± 0.16 |
| CCCAAGCAAUAUUACGUGAA | -3.33 ± 0.14 | -2.13 ± 0.14 |
| CCCAAGCAAUAUUACGUGAC | -3.91 ± 0.25 | -2.03 ± 0.19 |
| CCCAAGCAAUAUUACGUGUC | -4.25 ± 0.26 | -2.72 ± 0.18 |
